# Legend:
# [1] = test system: immobilized biotinylated peptide, N-terminal amino acid F (X-SDGMFTAGSLIGK(biotin)); assay: Phage ELISA, binding to immobilized peptide, N-terminal F
# Method: (§1) Given the discovery that the specificity pocket library was functionally robust, selections against synthetic peptide ligands were carried out using this library. The specificity pocket library was selected against 20 biotinylated peptides, each with a different N-terminal residue atop a common leader sequence (X-SDGMFTAGSLIGK(biotin)) (SEQ ID NO: 4). The peptides were immobilized individually to the bottom wells of a microtiter plate. […] Consequently, ClpS mutant variants that prefer other residues in addition to the ligand ‘bait’ would bind those competing peptides in solution and simply be washed away. Only selective variants that bound to the immobilized target(s) were amplified during each subsequent round of selection.
# (§2) To evaluate the specificity and selectivity of individual clones, both wild-type ClpS and the selected variants' binding to each of the biotinylated peptides independently were tested. The same approach was also used to monitor the progress of the selections and to prioritize particular pools of phage for further investigation.
# (§3) Promising single clones were picked from the selection pools and their specificity was evaluated using the same panel of biotinylated peptides and various amounts of phage supernatant. […] Accordingly, Variant 1 represents a selective N-terminal amino acid capture probe for tryptophan useful for the sequencing methods described herein. Variant 1 also represents a useful scaffold for performing further generation and selection of variants with desirable properties for use as additional N-terminal amino acid capture probes.
# (§4) The selection and ELISA protocols are very similar. Briefly, each well of a 96-well Maxisorp plate was coated overnight at 4° C. with 100 μl of 10 μg/ml neutravidin in PBS, or 1:500 dilution of anti-FLAG antibody. […]
# (§5) For the ELISA readouts, 100 μl of pH adjusted phage supernatant or polyethylene glycol (PEG) precipitated concentrated phage was added to appropriate wells and allowed to bind for 1 hour at 4° C. […] The reaction was stopped by addition of 90 μl of 1M H3PO4 and the absorbance at A450 nm was read.
# [2] = test system: immobilized biotinylated peptide, N-terminal amino acid Y (X-SDGMFTAGSLIGK(biotin)); assay: Phage ELISA, binding to immobilized peptide, N-terminal Y
# Method: as §1, §2, §3, §4, §5
# [3] = test system: immobilized biotinylated peptide, N-terminal amino acid T (X-SDGMFTAGSLIGK(biotin)); assay: Phage ELISA, binding to immobilized peptide, N-terminal T
# Method: as §1, §2, §3, §4, §5
# [4] = test system: immobilized biotinylated peptide, N-terminal amino acid Q (X-SDGMFTAGSLIGK(biotin)); assay: Phage ELISA, binding to immobilized peptide, N-terminal Q
# Method: as §1, §2, §3, §4, §5
# [5] = test system: immobilized biotinylated peptide, N-terminal amino acid S (X-SDGMFTAGSLIGK(biotin)); assay: Phage ELISA, binding to immobilized peptide, N-terminal S
# Method: as §1, §2, §3, §4, §5
# [6] = test system: immobilized biotinylated peptide, N-terminal amino acid L (X-SDGMFTAGSLIGK(biotin)); assay: Phage ELISA, binding to immobilized peptide, N-terminal L
# Method: as §1, §2, §3, §4, §5
# [7] = test system: immobilized biotinylated peptide, N-terminal amino acid A (X-SDGMFTAGSLIGK(biotin)); assay: Phage ELISA, binding to immobilized peptide, N-terminal A
# Method: as §1, §2, §3, §4, §5
# [8] = test system: immobilized biotinylated peptide, N-terminal amino acid V (X-SDGMFTAGSLIGK(biotin)); assay: Phage ELISA, binding to immobilized peptide, N-terminal V
# Method: as §1, §2, §3, §4, §5
molecule,measurement,setting,value
"ClpS WT: truncated wildtype E. coli ClpS polypeptide, 84 amino acids, SEQ ID NO: 1, displayed on phage (protein, listed as Escherichia coli, phage display) KPPSMYKVILVNDDYTPMEFVIDVLQKFFSYDVERATQLMLAVHYQGKAICGVFTAEVAETKVAMVNKYARENEHPLLCTLEKA",phage ELISA binding signal,"[1]; N-terminal F, phage 10X, sub Fab",1.81
same,phage ELISA binding signal,"[1]; N-terminal amino acid F, Table 1",1.81
same,phage ELISA binding signal,"[2]; N-terminal Y, phage 10X, sub Fab",1.08
same,phage ELISA binding signal,"[2]; N-terminal amino acid Y, Table 1",1.08
same,phage ELISA binding signal,"[3]; N-terminal T, phage 10X, sub Fab",0.01
same,phage ELISA binding signal,"[3]; N-terminal amino acid T, Table 1",0.01
same,phage ELISA binding signal,"[4]; N-terminal Q, phage 10X, sub Fab",−0.18
same,phage ELISA binding signal,"[4]; N-terminal amino acid Q, Table 1",−0.18
same,phage ELISA binding signal,"[5]; N-terminal S, phage 10X, sub Fab",−0.01
same,phage ELISA binding signal,"[5]; N-terminal amino acid S, Table 1",−0.01
same,phage ELISA binding signal,"[6]; N-terminal L, phage 10X, sub Fab",1.57
same,phage ELISA binding signal,"[6]; N-terminal amino acid L, Table 1",1.57
same,phage ELISA binding signal,"[7]; N-terminal A, phage 10X, sub Fab",−0.29
same,phage ELISA binding signal,"[7]; N-terminal amino acid A, Table 1",−0.29
same,phage ELISA binding signal,"[8]; N-terminal V, phage 10X, sub Fab",−0.09
same,phage ELISA binding signal,"[8]; N-terminal amino acid V, Table 1",−0.09

# — US11802878B2, “Protein sequencing method and reagents” (The Governing Council of the University of Toronto, priority 2009, dated 2023)
